According to paper PMC10711553, “Structural and biochemical analysis of the PARP1-homology region of PARP4/vault PARP”:

Key:
PARP4 WGR-CAT [1] = molecular target: T1, PARP4 WGR-CAT (Homo sapiens, UniProt Q9UKK3 95-573); experiment: EMSA; 100 nM RNA; FP: 50 mM Tris pH 7.5, 50 mM NaCl, 0.05% NP40, 2 mM DTT, 5% glycerol, room temperature 30 min; EMSA: same but 20% glycerol, 100 nM nucleic acid, room temperature 30 min, gel at 4 C in Tris-glycine; conditions: protein: recombinant; tags: N-terminal His-SUMO tag, cleaved with TEV; label: none (SYBR Gold stain); Mfold secondary structure, annealed
T1 sequence: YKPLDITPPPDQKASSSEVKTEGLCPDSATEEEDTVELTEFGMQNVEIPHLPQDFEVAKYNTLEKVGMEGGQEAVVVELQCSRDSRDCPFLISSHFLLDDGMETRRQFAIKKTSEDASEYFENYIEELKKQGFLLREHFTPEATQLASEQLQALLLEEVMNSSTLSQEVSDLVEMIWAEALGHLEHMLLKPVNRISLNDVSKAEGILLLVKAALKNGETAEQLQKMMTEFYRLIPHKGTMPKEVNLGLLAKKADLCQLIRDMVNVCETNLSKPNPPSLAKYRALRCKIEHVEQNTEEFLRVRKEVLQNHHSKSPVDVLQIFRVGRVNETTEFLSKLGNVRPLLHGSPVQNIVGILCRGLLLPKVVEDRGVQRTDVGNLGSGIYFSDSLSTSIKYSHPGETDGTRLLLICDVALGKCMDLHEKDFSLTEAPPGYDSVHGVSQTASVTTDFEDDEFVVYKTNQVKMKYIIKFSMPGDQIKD

PARP4 BRCT-WGR-CAT [2] = molecular target: T2, PARP4 BRCT-WGR-CAT (Homo sapiens, UniProt Q9UKK3 1-573); experiment: EMSA; 100 nM RNA; apparent Kd; FP: 50 mM Tris pH 7.5, 50 mM NaCl, 0.05% NP40, 2 mM DTT, 5% glycerol, room temperature 30 min; EMSA: same but 20% glycerol, 100 nM nucleic acid, room temperature 30 min, gel at 4 C in Tris-glycine; conditions: protein: recombinant, tags: N-terminal His-SUMO tag, cleaved with TEV, Mfold secondary structure, annealed
T2 sequence: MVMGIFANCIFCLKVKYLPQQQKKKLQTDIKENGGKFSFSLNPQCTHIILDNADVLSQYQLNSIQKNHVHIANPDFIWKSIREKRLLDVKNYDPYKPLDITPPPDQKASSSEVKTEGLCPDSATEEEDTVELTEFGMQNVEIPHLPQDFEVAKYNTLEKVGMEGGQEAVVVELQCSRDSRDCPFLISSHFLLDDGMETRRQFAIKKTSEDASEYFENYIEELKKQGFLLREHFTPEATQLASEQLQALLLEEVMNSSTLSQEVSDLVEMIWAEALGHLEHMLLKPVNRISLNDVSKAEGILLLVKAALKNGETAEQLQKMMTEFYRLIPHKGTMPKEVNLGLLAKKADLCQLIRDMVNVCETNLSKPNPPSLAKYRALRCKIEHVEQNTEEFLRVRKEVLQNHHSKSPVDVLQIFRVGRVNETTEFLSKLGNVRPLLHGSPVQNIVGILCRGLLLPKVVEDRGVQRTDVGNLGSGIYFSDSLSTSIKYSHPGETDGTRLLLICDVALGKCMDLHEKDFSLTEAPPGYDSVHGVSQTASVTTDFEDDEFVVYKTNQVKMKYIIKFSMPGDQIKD

PARP4 WGR-CAT [3] = molecular target: T1, PARP4 WGR-CAT; experiment: fluorescence polarization; 30 nM RNA; FP: 50 mM Tris pH 7.5, 50 mM NaCl, 0.05% NP40, 2 mM DTT, 5% glycerol, room temperature 30 min; EMSA: same but 20% glycerol, 100 nM nucleic acid, room temperature 30 min, gel at 4 C in Tris-glycine; conditions: protein: recombinant; tags: N-terminal His-SUMO tag, cleaved with TEV; label: 5'-6-FAM; Mfold secondary structure, annealed
PARP4 BRCT-WGR-CAT [4] = molecular target: T2, PARP4 BRCT-WGR-CAT; experiment: fluorescence polarization; 30 nM RNA; apparent Kd; FP: 50 mM Tris pH 7.5, 50 mM NaCl, 0.05% NP40, 2 mM DTT, 5% glycerol, room temperature 30 min; EMSA: same but 20% glycerol, 100 nM nucleic acid, room temperature 30 min, gel at 4 C in Tris-glycine; conditions: protein: recombinant; tags: N-terminal His-SUMO tag, cleaved with TEV; label: 5'-6-FAM; Mfold secondary structure, annealed
PARP4 WGR-CAT [5] = molecular target: T1, PARP4 WGR-CAT; experiment: EMSA; 100 nM DNA; FP: 50 mM Tris pH 7.5, 50 mM NaCl, 0.05% NP40, 2 mM DTT, 5% glycerol, room temperature 30 min; EMSA: same but 20% glycerol, 100 nM nucleic acid, room temperature 30 min, gel at 4 C in Tris-glycine; conditions: protein: recombinant; tags: N-terminal His-SUMO tag, cleaved with TEV; label: none stated (SYBR Gold stain); blunt

B1: HDV ribozyme RNA (84 nt) (structured_RNA)
RNA: GCCGGCCAUGGUCCCAGCCUCCUCGCUGGCGGCCGGUGGGCAACAUUCCGAGGGGACCGUCCCUCGGUAAUGGCGAAUGGGACA
Q: Does B1 bind (PARP4 WGR-CAT [1])?
A: no binding

Q: What about the Kd (PARP4 BRCT-WGR-CAT [2]; label: none (SYBR Gold stain)) of the same binder?
A: 3.4 ± 0.3 µM

B2: vtRNA1-2 (structured_RNA)
RNA: GGCUGGCUUUAGCUCAGCGGUUACUUCGAGUACAUUGUAACCACCUCUCUGGGUGGUUCGAGACCCGCGGGUGCUUUCCAGCUCUUUU
Q: Does B2 bind (PARP4 WGR-CAT [3])?
A: no binding

Q: And the Kd (PARP4 BRCT-WGR-CAT [2]; label: 5'-6-FAM)?
A: 1.5 ± 0.4 µM

Q: And the Kd (PARP4 BRCT-WGR-CAT [4])?
A: 15 ± 9 µM

B3: 47-bp DNA duplex (dsDNA)
DNA 1: CAGATCTACCGAATCAGTCCGACGACGCATCTGCACTACGAGGATAC
DNA 2: GTATCCTCGTAGTGCAGATGCGTCGTCGGACTGATTCGGTAGATCTG
Q: Does B3 bind (PARP4 WGR-CAT [5])?
A: no binding
